Read-outs that look alike come from different tables or passages of the source. No end group written: not given here.
Legend:
WT hERG = WT hERG (Homo sapiens, UniProt Q12809); conditions: for Isochronal percentage of hERG block (IhERG tail): terfenadine 100 nM, thioridazine 100 nM, dofetilide 10 nM, chloroquine 1 µM, ketoconazole 3 µM, mean ± SEM
Method: (§1) For transient transfection experiments, 24 hr after plating cells out, cells were transiently transfected with 0.5 µg of the F656V hERG construct using Lipofectamine^TM LTX (Invitrogen) according to the manufacturer's instructions. […] Cells were plated onto small sterilized glass coverslips 6 hr after transfection and recordings were made after at least 24 hr incubation at 37°C. Successfully transfected cells were identified using Dynabeads® (Invitrogen). All experimental data for the F656V hERG mutant channel were obtained from cells from a minimum of two transfections.
(§2) Recordings of hERG current (IhERG) and were made using an Axopatch 200 amplifier (Axon Instruments) and a CV201 head‐stage. Between 70%–80% of pipette series resistance was compensated. Voltage‐clamp commands were generated using “WinWCP” (John Dempster, Strathclyde University).
The A(x)1 and B(x)1 values were derived from Equation 1. […] Time courses of IhERG inhibition were fitted using either a single (Equation 3) exponential decay fit of the forms:(3) Y=Y^0-Plateau∗exp-K∗X+Plateau.
IhERG “tail” magnitude was measured relative to instantaneous current at −40 mV elicited by the brief (50 ms) depolarizing step that preceded the voltage command to +20 mV in the absence and presence of the drug. […] We also assessed the effects of drug block on IhERG time constants of deactivation. Tail currents on repolarization to −40mV were fitted using a biexponential to derive the fast τ1 and slow τ2 time constants of deactivation in control and after drug application.

F656V hERG = F656V hERG (Homo sapiens, UniProt Q12809, F656V); assay: Whole-cell patch-clamp recording of IhERG in HEK 293 cells transiently transfected with F656V hERG at 37°C
Method: The F656V hERG mutation (Lees‐Miller, Duan, Teng, & Duff, 2000) was generated using the QuickChange® site‐directed mutagenesis kit (Stratagene). In brief, a pair of complementary oligonucleotide primers containing the mutation (forward primer sequence 5′[…]3′ and reverse primer sequence 5′ […]3′, synthesized by Sigma‐Genosys) was used in a PCR reaction (95°C for 1 min, 60°C for 1 min, 68°C for 16 min for 18 cycles) with hERG in a modified pcDNA3.0 vector as a DNA template. A DpnI digest of the PCR mix was then performed for 1 hr at 37°C. Competent DH5α Escherichia coli (Invitrogen) were transformed using standard procedures. The mutation was confirmed by sequencing of the entire open reading frame (Eurofins MWG Operon).
as §1, §2

[1] = 30 nM BeKm-1, absence of erythromycin
[2] = 30 nM BeKm-1 in the maintained presence of 3 µM erythromycin

CCN(CC)CCCC(C)Nc1ccnc2cc(Cl)ccc12 (stereo not drawn) [Chloroquine, chloroquine]
Isochronal percentage of hERG block (IhERG tail) (WT hERG; 0 µM erythromycin): 48.4 ± 3.9 (n = 5) %
Isochronal percentage of hERG block (IhERG tail) (WT hERG; preincubation with 3 µM erythromycin): 70.8 ± 5.3 (n = 5) %
Isochronal percentage of hERG block (IhERG tail) (WT hERG; preincubation with 30 µM erythromycin): 77.8 ± 0.6 (n = 4) %
nature of interaction with erythromycin pretreatment on hERG block (WT hERG; pretreatment with low concentrations of erythromycin (≤30 µM)): strong synergism

BeKm‐1: peptide (scorpion) toxin, in house Fmoc-synthesized, externally acting hERG blocker (RPTDIKCSESYQCFPVCKSRFGKTNGRCVNGFCDCF; ends and bridges not checked; cysteine pairing not given here; UniProt Q9BKB7 22-57, looked up)
reduction of F656V IhERG (F656V hERG; [1]): 74.5 ± 1.6%
thalf of F656V IhERG inhibition (F656V hERG; [1]): 14.2 ± 3.3 s
block of F656V IhERG at steady state (F656V hERG; [2]): 69.4 ± 5.1%
thalf of F656V IhERG inhibition (F656V hERG; [2]): 20.7 ± 4.6 s
% of IhERG block at steady state (WT hERG): 51.4 ± 4.6%
WT IhERG tail block (WT hERG): 46.8 ± 5.0%
reduction of WT IhERG tail (WT hERG): 52.2 ± 3.4%
time course of WT hERG block (WT hERG): delayed
